Measured values: patent publication US20030059461A1 (SIBTECH, published 2003)

Key:
[1] = molecular target: T1, KDR/flk-1 receptor on 293/KDR or PAE/KDR cells (UniProt P35968 20-1356, limits assumed); test: Scatchard analysis of 125I-labelled protein binding to 293/KDR cells
T1 construct: whole, on cells; also called cellular KDR/flk-1 receptors

[2] = molecular target: T1, KDR/flk-1 receptor on 293/KDR or …; test: Scatchard analysis on 293/KDR cells
[3] = molecular target: T1, KDR/flk-1 receptor on 293/KDR or …; test: as described in Example 1.G.2 (binding to KDR/flk-1)
soluble KDR-Fc receptor = molecular target: T2, soluble KDR-Fc receptor (human, UniProt P35968 20-764, limits assumed); test: competition with 125I-VEGF165 for soluble KDR-Fc
T2 construct: extracellular domain; also called soluble, secreted extracellular domain of the KDR/flk-1 receptor fused to the Fc portion of human IgG; not shown: Fc portion of human IgG
T2 sequence (P35968 20-764 limits assumed): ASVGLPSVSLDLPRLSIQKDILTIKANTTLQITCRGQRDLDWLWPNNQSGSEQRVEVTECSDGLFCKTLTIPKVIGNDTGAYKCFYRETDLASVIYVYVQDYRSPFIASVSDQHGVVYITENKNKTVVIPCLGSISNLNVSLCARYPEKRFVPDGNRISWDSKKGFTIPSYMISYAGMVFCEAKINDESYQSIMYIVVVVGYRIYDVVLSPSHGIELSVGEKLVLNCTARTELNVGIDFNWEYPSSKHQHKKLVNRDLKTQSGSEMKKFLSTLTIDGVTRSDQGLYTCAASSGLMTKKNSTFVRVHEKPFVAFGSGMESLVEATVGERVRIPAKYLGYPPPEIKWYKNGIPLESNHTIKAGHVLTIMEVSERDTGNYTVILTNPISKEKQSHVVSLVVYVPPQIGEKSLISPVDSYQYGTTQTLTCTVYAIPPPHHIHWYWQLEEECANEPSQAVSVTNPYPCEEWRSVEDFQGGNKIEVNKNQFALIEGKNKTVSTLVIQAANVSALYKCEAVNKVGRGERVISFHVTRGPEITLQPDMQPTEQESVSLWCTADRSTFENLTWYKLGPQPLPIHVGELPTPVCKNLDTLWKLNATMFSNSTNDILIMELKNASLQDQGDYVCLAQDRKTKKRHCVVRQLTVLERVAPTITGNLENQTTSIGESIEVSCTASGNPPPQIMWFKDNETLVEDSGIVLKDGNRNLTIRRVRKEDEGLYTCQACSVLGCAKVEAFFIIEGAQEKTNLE

T1 sequence (P35968 20-1356 limits assumed): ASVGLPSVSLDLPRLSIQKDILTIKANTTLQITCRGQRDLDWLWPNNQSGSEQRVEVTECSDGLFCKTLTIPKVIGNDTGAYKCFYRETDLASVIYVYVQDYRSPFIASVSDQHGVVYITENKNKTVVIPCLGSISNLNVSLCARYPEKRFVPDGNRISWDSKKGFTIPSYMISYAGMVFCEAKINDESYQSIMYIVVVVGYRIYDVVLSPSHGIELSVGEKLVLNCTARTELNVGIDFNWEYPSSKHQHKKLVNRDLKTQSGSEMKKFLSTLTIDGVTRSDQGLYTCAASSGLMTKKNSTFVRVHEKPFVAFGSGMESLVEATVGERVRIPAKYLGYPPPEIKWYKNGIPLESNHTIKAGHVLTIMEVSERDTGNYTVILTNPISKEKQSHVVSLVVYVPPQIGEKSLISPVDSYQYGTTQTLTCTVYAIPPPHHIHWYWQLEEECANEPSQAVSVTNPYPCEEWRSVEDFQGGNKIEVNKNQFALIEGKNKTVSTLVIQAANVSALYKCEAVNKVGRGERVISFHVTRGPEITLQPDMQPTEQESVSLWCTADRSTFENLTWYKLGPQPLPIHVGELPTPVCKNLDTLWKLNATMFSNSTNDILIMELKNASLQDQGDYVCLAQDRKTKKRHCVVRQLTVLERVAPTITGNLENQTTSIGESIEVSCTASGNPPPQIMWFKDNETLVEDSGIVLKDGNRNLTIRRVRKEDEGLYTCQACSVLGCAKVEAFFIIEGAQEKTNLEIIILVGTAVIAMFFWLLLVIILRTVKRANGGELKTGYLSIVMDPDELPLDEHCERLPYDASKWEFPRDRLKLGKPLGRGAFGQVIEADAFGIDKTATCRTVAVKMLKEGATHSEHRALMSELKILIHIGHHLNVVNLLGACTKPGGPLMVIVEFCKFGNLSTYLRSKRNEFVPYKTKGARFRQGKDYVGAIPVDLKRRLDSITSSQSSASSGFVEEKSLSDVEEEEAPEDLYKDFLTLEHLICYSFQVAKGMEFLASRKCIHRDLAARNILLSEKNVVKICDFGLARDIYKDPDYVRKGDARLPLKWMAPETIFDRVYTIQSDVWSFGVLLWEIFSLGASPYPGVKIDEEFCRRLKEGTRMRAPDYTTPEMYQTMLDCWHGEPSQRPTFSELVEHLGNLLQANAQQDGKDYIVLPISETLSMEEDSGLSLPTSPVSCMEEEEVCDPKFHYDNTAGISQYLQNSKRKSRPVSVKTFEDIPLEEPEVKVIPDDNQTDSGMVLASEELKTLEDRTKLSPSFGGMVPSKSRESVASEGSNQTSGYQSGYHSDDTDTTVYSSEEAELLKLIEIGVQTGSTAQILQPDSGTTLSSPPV

Kd [1]	fold lower affinity than VEGF165 [2]	binding result [3]	binding result (soluble KDR-Fc receptor)	Binder
3.5 nM	~10 fold	–	–	txFVEGF121 fusion protein (ligand, human, UniProt P15692-9 27-147, looked up, not shown: large carriers, 125I label in the Scatchard experiment, mature; also called txVEGF121) APMAEGGGQNHHEVVKFMDVYQRSYCHPIETLVDIFQEYPDEIEYIFKPSCVPLMRCGGCCNDEGLECVPTEESNITMQIMRIKPHQGQHIGEMSFLQHNKCECRPKKDRARQEKCDKPRR
–	–	binds	binds	txFVEGF189 fusion protein (ligand, human, UniProt P15692-2 27-215, looked up, not shown: large carriers, mature; also called txVEGF189) APMAEGGGQNHHEVVKFMDVYQRSYCHPIETLVDIFQEYPDEIEYIFKPSCVPLMRCGGCCNDEGLECVPTEESNITMQIMRIKPHQGQHIGEMSFLQHNKCECRPKKDRARQEKKSVRGKGKGQKRKRKKSRYKSWSVPCGPCSERRKHLFVQDPQTCKCSCKNTDSRCKARQLELNERTCRCDKPRR
